The values that follow come from patent publication US20010052137A1, “Axin domain-like polypeptide inhibitors of glycogen synthase kinase 3 beta activity and activators of wnt signaling” (Trustees of the University of Pennsylvania, priority 2000, published 2001).

Experiment [1] deals with GSK-3 beta. Put plainly: In ovo tau phosphorylation assay: GSK-3 beta and Xaxin constructs co-expressed in Xenopus oocytes. The format is cell-based. As to conditions: construct co-expressed with GSK-3 beta in Xenopus oocytes; tau microinjected; PHF-1 immunoblot. On the procedure:
Stage VI Xenopus oocytes were isolated by collagenase treatment (Smith et al., 1994, Meth. Cell Biol. 36:45-58) and were injected with mRNA prepared by in vitro transcription (mMessage Machine™; Ambion, Austin, Tex.). 10 nanoliters of mRNA (containing 1-2 nanograms per nanoliter) was injected for each construct (unless otherwise specified), and the injected oocytes were incubated for 16 hours at 18° C. To analyze the effects of Xaxin constructs on dorsal-ventral pattern formation, Xenopus embryos were injected with 10 nanoliters of mRNA (0.1-0.2 nanogram per nanoliter) into one dorsal or ventral cell of a 4 cell embryo and dorsal axes were assessed at the tadpole stage. For Xaxin co-immunoprecipitation, fertilized eggs were injected with 10 nanoliters of Xaxin tagged with Myc, with hemagglutinin, or with both Myc and hemagglutinin (1 nanogram per nanoliter) and harvested at the blastula stage (stage 8).
In ovo phosphorylation of tau by GSK-3 beta was performed by microinjection of tau protein into oocytes expressing GSK-3 beta and Xaxin constructs. After 90 minutes, oocytes were homogenized and tau phosphorylation was analyzed in western blots using phospho-specific antibodies as described (Hedgepeth et al., 1997, Develop. Biol. 185:82-91). In vitro assays for GSK-3 beta activity were performed as described (Klein et al., 1996, Proc. Natl. Acad. Sci. USA 93:8455-8459). Recombinant GID-2/his protein (described below) was purified by affinity chromatography and added to in vitro assays at selected concentrations.
In the experiments presented in this example, a tau phosphorylation assay (described in Hedgepeth et al., 1997, Develop. Biol. 185:82-91) was used to examine the activity of GSK-3 beta in Xenopus oocytes in the presence of full length axin and axin deletion mutants. […] Furthermore, GSK-3 beta-dependent tau phosphorylation occurs in oocytes at the same sites (tau serine residues 396 and 404) that are phosphorylated by GSK-3 beta in vitro and occurs with similarly rapid kinetics.
GSK-3 beta was expressed in oocytes together with Myc-tagged full length Xaxin or with the amino-terminal (amino acid residues 63-288), GID-1 (amino acid residues 277-545), or carboxyl-terminal (amino acid residues 429-713) fragments of Xaxin, as depicted in FIG. 1A. Purified tau protein was then microinjected into the oocytes, and phosphorylation of tau was measured by immunoblotting using antibody PHF-1 or with antibodies that detect all (i.e. phosphorylated and non-phosphorylated) forms of tau.
In order to identify the domain of axin necessary for GSK-3 beta binding, multiple Myc-tagged GID deletion constructs (shown diagrammatically in FIG. 3A) were individually expressed in Xenopus oocytes in which GSK-3 beta was also expressed. Tau protein was microinjected into the oocytes, and immunoblotting was performed using phosphorylation-state-specific tau antibodies. A parallel group of oocytes expressing GSK-3 beta and the Myc-tagged GID deletion constructs were lysed, and GID proteins were immunoprecipitated using a Myc-specific antibody. The presence or absence of GSK-3 beta in GID immunoprecipitates was detected using GSK-3 beta-specific antibodies. GID deletion constructs which included amino acid residues 380-404 of Xaxin (i.e. constructs GID-1, GID-2, GID-4, GID-5, and GID-6) bound GSK-3 beta and inhibited GSK-3 beta mediated tau phosphorylation, as indicated in FIG. 3A. […] However, changing leucine residue 392 in FIG. 3B to proline abolishes its activity.
On the technique in general: In western blotting, separated proteins are transferred to a membrane and probed.

In experiment [2] the test system is GSK-3 beta. Put plainly: Co-immunoprecipitation of GSK-3 beta with Myc-tagged Xaxin constructs in Xenopus oocytes. Type of experiment: binding. As to conditions: Myc-tagged construct co-expressed with GSK-3 beta in Xenopus oocytes; anti-Myc IP, anti-GSK-3 beta blot.
In experiment [3] the test system is Xenopus embryos. In words: Dorsal axis duplication / dorsalization in Xenopus embryos after mRNA injection. Type of experiment: in vivo. The note with it: for effect on axial development / axis formation: construct expressed in embryos, injection side not stated.

“Also recorded” adds a separate entry of the source.

B1: GID-2: Myc-tagged fragment, Xaxin amino acid residues 320-429 (protein)
chain: DSEQQSMSSDADTMSLTDSSVDGIPPYRLRKHYRREMQESANANGRGPLPHIPRTYHMPKDIHVDPEKFAAELISRLEGVLRDREAEQKLEERLKRVRAEEEGDDGDVSS
modifications: left off: small tags and cut ends
In the case of B1, the “GSK-3 beta-mediated tau phosphorylation (GSK-3 beta activity)” value (shortened to “GSK-3 beta-mediated tau phosphorylation”) in experiment [1] is given as “inhibited”. The “binding with GSK-3 beta (co-immunoprecipitation)” value (“binding with GSK-3 beta” below) in experiment [2] is listed as “bound”.

B2: deltaDIX: Xaxin having amino acid residues 778-842 deleted (protein)
chain: MSVKGKGFPLDLGGSFTEDAPRPPVPGEEGELITTDQRPFSHTYYSLKNDGIKNETSTATPRRPDLDLGYEPEGSASPTPPYLKWAESLHSLLDDQDGIHLFRTFLQQENCADLLDFWFACSGFRKLEPNDSKVEKRLKLAKAIYKKYVLDSNGIVSRQIKPATKSFIKDCVLRQQIDPAMFDQAQMEIQSMMEDNTYPVFLKSDIYLEYTTIGGESPKNYSDQSSGSGTGKGPSGYLPTLNEDEEWRCDQGGEHERERECIPSSLFSQKLALDSSSHCAGSNRRLSDGREFRPGTWREPVNPYYVNTGYAGAPVTSANDSEQQSMSSDADTMSLTDSSVDGIPPYRLRKHYRREMQESANANGRGPLPHIPRTYHMPKDIHVDPEKFAAELISRLEGVLRDREAEQKLEERLKRVRAEEEGDDGDVSSGPSVISHKLPSGPPMHHFNSRYSETGCVGMQIRDAHEENPESILDEHVQRVMKTPGCQSPGTGRHSPKSRSPDGHLSKTLPGSLGTMQTGHGKHSSKSTAKVDSGNLHHHKHVYHHVHHHGGVKPKEQIDGESTQRVQTNFPWNVESHNYATKSRNYAESMGMAPNPMDSLAYSGKVSMLSKRNAKKADLGKSESASHEMPVVPEDSERHQKILQWIMEGEKEIIRHKKSNHSSSSAKKQPPTELARPLSIERPGAVHPWVSAQLRNVVQPSHPFIQDPTMPPNPAPNPLTQLVSKPGARLEEEEKKAAKMPQKQRLKPQKKNVSAPSQPCDNIVVAYYFCGEPIPYRT
modifications: left off: small tags and cut ends
notes: Xaxin having amino acid residues 778-842 deleted
In the case of B2, in experiment [1], the “GSK-3 beta-mediated tau phosphorylation” value is recorded as “partially inhibited”. In addition, the “binding with GSK-3 beta” value in experiment [2] is listed as “bound”.

B3: GID-4: Myc-tagged fragment, Xaxin amino acid residues 350-429 (protein)
chain: KHYRREMQESANANGRGPLPHIPRTYHMPKDIHVDPEKFAAELISRLEGVLRDREAEQKLEERLKRVRAEEEGDDGDVSS
modifications: left off: small tags and cut ends
Turning to B3, in experiment [1], the “GSK-3 beta-mediated tau phosphorylation” value is reported as “inhibited”. Besides, the “binding with GSK-3 beta” value in experiment [2] is “bound”.

B4: deltaGID: Xaxin having amino acid residues 324-504 deleted (protein)
chain: MSVKGKGFPLDLGGSFTEDAPRPPVPGEEGELITTDQRPFSHTYYSLKNDGIKNETSTATPRRPDLDLGYEPEGSASPTPPYLKWAESLHSLLDDQDGIHLFRTFLQQENCADLLDFWFACSGFRKLEPNDSKVEKRLKLAKAIYKKYVLDSNGIVSRQIKPATKSFIKDCVLRQQIDPAMFDQAQMEIQSMMEDNTYPVFLKSDIYLEYTTIGGESPKNYSDQSSGSGTGKGPSGYLPTLNEDEEWRCDQGGEHERERECIPSSLFSQKLALDSSSHCAGSNRRLSDGREFRPGTWREPVNPYYVNTGYAGAPVTSANDSEQQHLSKTLPGSLGTMQTGHGKHSSKSTAKVDSGNLHHHKHVYHHVHHHGGVKPKEQIDGESTQRVQTNFPWNVESHNYATKSRNYAESMGMAPNPMDSLAYSGKVSMLSKRNAKKADLGKSESASHEMPVVPEDSERHQKILQWIMEGEKEIIRHKKSNHSSSSAKKQPPTELARPLSIERPGAVHPWVSAQLRNVVQPSHPFIQDPTMPPNPAPNPLTQLVSKPGARLEEEEKKAAKMPQKQRLKPQKKNVSAPSQPCDNIVVAYYFCGEPIPYRTMVKGRVVTLGQFKELLTKKGNYRYYFKKVSDEFDCGVVFEEVREDDMILPIYEEKIIGQVEKID
modifications: left off: small tags and cut ends
notes: Xaxin having amino acid residues 324-504 deleted
Turning to B4, in experiment [1], the “GSK-3 beta-mediated tau phosphorylation” value is “no discernible effect”. For the same molecule, the “binding with GSK-3 beta” value in experiment [2] was “did not bind”. In addition, the “effect on axial development / axis formation” value in experiment [3] is “infrequent ectopic posterior axis formation”.

B5: GID-1: Myc-tagged fragment, amino acid residues 277-545 of Xenopus axin (Xaxin) (protein)
chain: SHCAGSNRRLSDGREFRPGTWREPVNPYYVNTGYAGAPVTSANDSEQQSMSSDADTMSLTDSSVDGIPPYRLRKHYRREMQESANANGRGPLPHIPRTYHMPKDIHVDPEKFAAELISRLEGVLRDREAEQKLEERLKRVRAEEEGDDGDVSSGPSVISHKLPSGPPMHHFNSRYSETGCVGMQIRDAHEENPESILDEHVQRVMKTPGCQSPGTGRHSPKSRSPDGHLSKTLPGSLGTMQTGHGKHSSKSTAKVDSGNLHHHKHVYHH
modifications: left off: small tags and cut ends
On to B5, for which, in experiment [1], the “GSK-3 beta-mediated tau phosphorylation” value is “virtually complete inhibition; also recorded: inhibited”. In addition, the “binding with GSK-3 beta” value in experiment [2] is reported as “bound”. Further, in experiment [3], the “effect on axial development / axis formation” value was “complete axis duplication”.

B6: deltaRGS: Xaxin having amino acid residues 80-290 (RGS domain) deleted (protein)
chain: MSVKGKGFPLDLGGSFTEDAPRPPVPGEEGELITTDQRPFSHTYYSLKNDGIKNETSTATPRRPDLDLGYEPEGSASPTPREFRPGTWREPVNPYYVNTGYAGAPVTSANDSEQQSMSSDADTMSLTDSSVDGIPPYRLRKHYRREMQESANANGRGPLPHIPRTYHMPKDIHVDPEKFAAELISRLEGVLRDREAEQKLEERLKRVRAEEEGDDGDVSSGPSVISHKLPSGPPMHHFNSRYSETGCVGMQIRDAHEENPESILDEHVQRVMKTPGCQSPGTGRHSPKSRSPDGHLSKTLPGSLGTMQTGHGKHSSKSTAKVDSGNLHHHKHVYHHVHHHGGVKPKEQIDGESTQRVQTNFPWNVESHNYATKSRNYAESMGMAPNPMDSLAYSGKVSMLSKRNAKKADLGKSESASHEMPVVPEDSERHQKILQWIMEGEKEIIRHKKSNHSSSSAKKQPPTELARPLSIERPGAVHPWVSAQLRNVVQPSHPFIQDPTMPPNPAPNPLTQLVSKPGARLEEEEKKAAKMPQKQRLKPQKKNVSAPSQPCDNIVVAYYFCGEPIPYRTMVKGRVVTLGQFKELLTKKGNYRYYFKKVSDEFDCGVVFEEVREDDMILPIYEEKIIGQVEKID
modifications: left off: small tags and cut ends
notes: Xaxin having amino acid residues 80-290 (RGS domain) deleted
For the molecule B6, the “GSK-3 beta-mediated tau phosphorylation” value in experiment [1] is “inhibited”. Moreover, in experiment [2], the “binding with GSK-3 beta” value is “bound”. The “effect on axial development / axis formation” value in experiment [3] is on record as “complete axis duplication”. The “embryos that exhibited dorsalization” value in experiment [3] (construct(s) expressed in Xenopus embryos) is recorded as 86%.
